From article PMC5739345, “Identification of iridoid synthases from Nepeta species: Iridoid cyclization does not determine nepetalactone stereochemistry” (Phytochemistry, 2018)

Columns and labels:
purified protein [1] = substrate: C/C(C=O)=C\CC/C(C)=C/C=O; assay: purified protein; format: biochemical, Nepeta racemosa; conditions: 75 μM NADPH, 200 mM MOPS pH 7.0, 100 mM NaCl, 1-1.4% THF, 25 °C, 5 nM enzyme
purified protein [2] = substrate: NC(=O)C1=CN([C@@H]2O[C@H](COP(=O)(O)OP(=O)(O)OC[C@H]3O[C@@H](n4cnc5c(N)ncnc54)[C@H](OP(=O)(O)O)[C@@H]3O)[C@@H](O)[C@H]2O)C=CC1; assay: purified protein; format: biochemical, Nepeta racemosa; conditions: 50 μM 8-oxogeranial, 200 mM MOPS pH 7.0, 100 mM NaCl, 1-1.4% THF, 25 °C, 5 nM enzyme, varied: cofactor

B1: NmISY2 (Nepeta racemosa) (protein)
chain: MSLSWWRAGAAKKRMDDDESLLVKQQQQQCVALIVGVTGLVGNSLAEMLPLPDTPGGPWKVYGVARRARPSWNEDQPMTYISCDVSNTGEVEAKLSPLSDVTHIFYATWTSRSTEEENCEANGKMLKNVLDAMIPNCPNLKHICLQTGRFHYVASVVDWKINGSHDTPLTEDLPRLKTNNFYYTQEDILLEEVKRKEGLTWSVHRPGTIFGFSPYSMMNLVGTLCVYAAICKQEGAVLRFPGCKGAWDGHSDCADADLIAEQQIWAALDPHAKNQAFNVSNGDLFKWKHLWKVLADQFGVECGDYEEGQQLRLQDVMKDKGPVWDKIVAENGLSNTKLEDVGKWWFSDTILWNECRLDSMNKSKEHGFLGFRNSKNCFLYWIHKVKAYNLVPSTYT
notes: N-terminal His-tag (pOPINF), E. coli soluBL21 (DE3), Ni-NTA and gel filtration; not fully homogeneous; dimer fraction; Phe at Lys146, Ala at Gly150 positions (natural)
B1 showed a Km (purified protein [1]) of 7.3 ± 0.7 µM, a kcat (purified protein [1]) of 0.60 ± 0.02 s⁻¹ and a Km (purified protein [2]) of 26.2 ± 5.1 µM. For the same protein, the kcat (purified protein [2]) was 0.84 ± 0.06 s⁻¹.
